Experimental data from patent US20210388087A1.
Where a chain is given by its changes, count along the chain named. Names and notes keep the numbering of the source.

B1: dBBDu183H S100aY / dBBDu072L (antibody, name in Kabat numbering, V domains shown)
VH: QVQLVESGGGLVQPGRSLRLSCAASGFTFSNAWMHWVRQAPGKGLEWVAQIKDKGNAYAAYYAPSVKGRFTISRDDSKNSIYLQMNSLKTEDTAVYYCHYVHYASAYTVLPAFGVDAWGQGTTVTVSS
VL: DIVMTQSPLSLPVTPGEPASISCQASQELVHMNRNTYLHWYQQKPGQAPRLLIYKVSNRFPGVPDRFSGSGSGTDFTLKISRVEAEDVGVYYCAQGTSVPFTFGQGTKLEIK
B2: dBBDu183H A100fY / dBBDu072L (antibody, name in Kabat numbering, V domains shown)
VH: B1 VH with Y107S, A112Y
VL: B1 VL
B3: dBBDu183H L100dY / dBBDu072L (antibody, name in Kabat numbering, V domains shown)
VH: B1 VH with Y107S, L110Y
VL: B1 VL
B4: dBBDu183H G100hY / dBBDu072L (antibody, name in Kabat numbering, V domains shown)
VH: B1 VH with Y107S, G114Y
VL: B1 VL
B5: dBBDu183H A100Y / dBBDu072L (antibody, name in Kabat numbering, V domains shown)
VH: B1 VH with A106Y, Y107S
VL: B1 VL
B6: dBBDu183H A102W / dBBDu072L (antibody, name in Kabat numbering, V domains shown)
VH: B1 VH with Y107S, A117W
VL: B1 VL
B7: dBBDu183H V100iY / dBBDu072L (antibody, name in Kabat numbering, V domains shown)
VH: B1 VH with Y107S, V115Y
VL: B1 VL
B8: dBBDu183H H93Y / dBBDu072L (antibody, name in Kabat numbering, V domains shown)
VH: B1 VH with H99Y, Y107S
VL: B1 VL
B9: dBBDu183H A102Y / dBBDu072L (antibody, name in Kabat numbering, V domains shown)
VH: B1 VH with Y107S, A117Y
VL: B1 VL
B10: dBBDu183H T100bY / dBBDu072L (antibody, name in Kabat numbering, V domains shown)
VH: B1 VH with Y107S, T108Y
VL: B1 VL
B11: dBBDu183H A98Y / dBBDu072L (antibody, name in Kabat numbering, V domains shown)
VH: B1 VH with A104Y, Y107S
VL: B1 VL
B12: dBBDu183H P100eY / dBBDu072L (antibody, name in Kabat numbering, V domains shown)
VH: B1 VH with Y107S, P111Y
VL: B1 VL
B13: dBBDu183H V63Y / dBBDu072L (antibody, name in Kabat numbering, V domains shown)
VH: B1 VH with V66Y, Y107S
VL: B1 VL
B14: dBBDu183H V95Y / dBBDu072L (antibody, name in Kabat numbering, V domains shown)
VH: B1 VH with V101Y, Y107S
VL: B1 VL
B15: dBBDu183H D101Y / dBBDu072L (antibody, name in Kabat numbering, V domains shown)
VH: B1 VH with Y107S, D116Y
VL: B1 VL
B16: H183/L072 VH F29A (antibody, name in Kabat numbering, V domains shown)
VH: B1 VH with F29A, Y107S
VL: B1 VL
B17: H183/L072 VH M34A (antibody, name in Kabat numbering, V domains shown)
VH: B1 VH with M34A, Y107S
VL: B1 VL
B18: H183/L072 VH W33A (antibody, name in Kabat numbering, V domains shown)
VH: B1 VH with W33A, Y107S
VL: B1 VL

target: Human CD137 ECD (human); assay: SPR, vs parent H183/L072
Sequence (chain, as listed by the source limits assumed): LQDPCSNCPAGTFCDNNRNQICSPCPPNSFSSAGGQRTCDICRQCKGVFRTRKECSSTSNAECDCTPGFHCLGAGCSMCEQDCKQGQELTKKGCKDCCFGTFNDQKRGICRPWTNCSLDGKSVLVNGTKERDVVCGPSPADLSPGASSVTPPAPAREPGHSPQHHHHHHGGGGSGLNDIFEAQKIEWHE

Binder | fold change of affinity
B1 | 0 fold
B2 | 0 fold
B3 | 0 fold
B4 | 0 fold
B5 | 0 fold
B6 | 0 fold
B7 | 0 fold
B8 | 0 fold
B9 | 0 fold
B10 | 0 fold
B11 | 0 fold
B12 | 0 fold
B13 | 0 fold
B14 | 0 fold
B15 | 0 fold

target: Human CD137 ECD (human); assay: single mutant vs template dBBDu183H

Binder | fold change of affinity
B16 | 0 fold
B17 | 0 fold
B18 | 0 fold
